Results published in patent publication US20200352914A1, “METHODS OF TREATING HYPERTENSION WITH ACTIVATORS OF TIE-2” (Aerpio Pharmaceuticals, Inc., priority 2019, published 2020).
Blank lines part the entries; values can stand above or below the molecule they belong to.

Experiments:
HPTPβ = HPTPβ (Homo sapiens, UniProt P23467); test: HPTPβ inhibitory activity (IC50); format: biochemical
eNOS = eNOS and Akt phosphorylation in human endothelial cells (immunoprecipitation, immunoblotting); format: cell-based
Procedure: Confluent monolayers of human endothelial cells expressing FLAG-tagged eNOS cultured overnight in MCDB131 containing 0.1% BSA and then incubated with increasing concentrations of Compound 2 (0.3-30 μmol/L) or solvent (DMSO) for 30 minutes. In separate experiments, human endothelial cells were cultured overnight in MCDB131 containing 0.1% BSA and then incubated treated with Compound 2 (30 μmol/L) or solvent for 30 minutes and then stimulated with Yoda1 (1 μmol/L) or solvent for an additional 30 minutes. To inhibit Src, cells were pre-incubated with PP2 (1 μmol/L) for 30 min before incubation with Compound 2 and stimulation with Yoda1. After two washes with cold PBS, cells were collected with the aid of cell scrapers in a lysis buffer containing Tris/HCl pH 7.5 (50 mmol/L), NaCl (150 mmol/L), Triton X-100 (1%), NaPPi (10 mmol/L), NaF (20 mmol/L), orthovanadate (2 mmol/L), okadaic acid (10 nmol/L), β-glycerophosphate (50 mmol/L), phenylmethylsulfonyl fluoride (230 μmol/L), and EDTA-free protease inhibitors mix. The cell mixture was incubated for 30 minutes at 4° C. with vortexing, followed by centrifugation at 13000 rpm for 10 minutes at 4° C. To assess the eNOS-VE-PTP interaction, the following modifications were applied: 1) cells were incubated with the lysis buffer for one hour on an end-over-end rocker at 4° C. and gently vortexed until no cell clumps were observed; 2) lysates were not centrifuged after lysis. FLAG-tagged eNOS was immunoprecipitated using 30 μL of packed Anti-FLAG M2 Affinity Gel per mg protein lysate overnight. The recovered immunoprecipitates were washed three times with the lysis buffer, eluted by boiling samples for 10 minutes in SDS sample buffer, and then analyzed by SDS-PAGE and immunoblotting.
Protein samples were separated by SDS-PAGE and then transferred to […] nitrocellulose membranes. Membranes were incubated overnight with primary antibodies against phospho-Tyr81 eNOS, phospho-Ser1177 eNOS, phospho-Ser633 eNOS, eNOS, phospho-Ser473 Akt, Akt, ABL1, VE-PTP, GAPDH, β-actin, followed by species-specific secondary antibodies anti-IgG conjugated with HRP. Proteins were visualized by enhanced chemiluminescence.

Tie-2 = Tie-2 phosphorylation in hypoxic HUVECs; format: cell-based, human; settings: HUVECs hypoxic 16 h; ANG-1 alone 500 ng/mL
Procedure: HUVECs cultured under hypoxic conditions for 16 hours were treated with 5 μM Compound 1 for 10 minutes in the presence or absence of ANG-1 or ANG-2 (500 ng/mL). Untreated cells served as controls. The cells were then lysed and Tie-2 was immunoprecipitated and probed with anti-phosphotyrosine (p-Tyr) to indicate Tie-2 activation, or anti-Tie-2 as a loading control.

subjects with DME = test: Sitting systolic blood pressure and pulse rate in subjects with DME, Compound 1 with or without ranibizumab (Example 9, TABLE 27); format: in vivo, human
Procedure: A total of 144 subjects with DME were split into 3 treatment groups. Group 1 received a subcutaneous injection of Compound 1 (15 mg) and a sham intravitreal injection. Group 2 received a subcutaneous injection of Compound 1 (15 mg) and an intravitreal injection of ranibizumab (0.3 mg). Group 3 received a subcutaneous injection of a placebo, and an intravitreal injection of ranibizumab (0.3 mg).
FIG. 19 and TABLE 27 show the effect of Compound 1 treatment, both alone and in combination with ranibizumab, on the sitting systolic blood pressure of subjects.
FIG. 20 compares the effects of Compound 1 treatment, alone (Group 1), or in combination with ranibizumab (Group 2), on subjects with a baseline sitting systolic blood pressure of 140 mmHg or greater, versus those with a baseline sitting systolic blood pressure of less than 140 mmHg. […] The correlation between baseline sitting systolic blood pressure and the change in blood pressure from baseline seen 30 and 90 minutes following specified treatments is shown in FIG. 21 and FIG. 22, respectively.

[1] = subjects with DME, Compound 1 15 mg subcutaneous, ranibizumab 0.3 mg intravitreal, 30 minutes post-dose
[2] = subjects with DME, Compound 1 15 mg subcutaneous, ranibizumab 0.3 mg intravitreal, 90 minutes post-dose

HPTPβ, sequence (P23467 23-1997): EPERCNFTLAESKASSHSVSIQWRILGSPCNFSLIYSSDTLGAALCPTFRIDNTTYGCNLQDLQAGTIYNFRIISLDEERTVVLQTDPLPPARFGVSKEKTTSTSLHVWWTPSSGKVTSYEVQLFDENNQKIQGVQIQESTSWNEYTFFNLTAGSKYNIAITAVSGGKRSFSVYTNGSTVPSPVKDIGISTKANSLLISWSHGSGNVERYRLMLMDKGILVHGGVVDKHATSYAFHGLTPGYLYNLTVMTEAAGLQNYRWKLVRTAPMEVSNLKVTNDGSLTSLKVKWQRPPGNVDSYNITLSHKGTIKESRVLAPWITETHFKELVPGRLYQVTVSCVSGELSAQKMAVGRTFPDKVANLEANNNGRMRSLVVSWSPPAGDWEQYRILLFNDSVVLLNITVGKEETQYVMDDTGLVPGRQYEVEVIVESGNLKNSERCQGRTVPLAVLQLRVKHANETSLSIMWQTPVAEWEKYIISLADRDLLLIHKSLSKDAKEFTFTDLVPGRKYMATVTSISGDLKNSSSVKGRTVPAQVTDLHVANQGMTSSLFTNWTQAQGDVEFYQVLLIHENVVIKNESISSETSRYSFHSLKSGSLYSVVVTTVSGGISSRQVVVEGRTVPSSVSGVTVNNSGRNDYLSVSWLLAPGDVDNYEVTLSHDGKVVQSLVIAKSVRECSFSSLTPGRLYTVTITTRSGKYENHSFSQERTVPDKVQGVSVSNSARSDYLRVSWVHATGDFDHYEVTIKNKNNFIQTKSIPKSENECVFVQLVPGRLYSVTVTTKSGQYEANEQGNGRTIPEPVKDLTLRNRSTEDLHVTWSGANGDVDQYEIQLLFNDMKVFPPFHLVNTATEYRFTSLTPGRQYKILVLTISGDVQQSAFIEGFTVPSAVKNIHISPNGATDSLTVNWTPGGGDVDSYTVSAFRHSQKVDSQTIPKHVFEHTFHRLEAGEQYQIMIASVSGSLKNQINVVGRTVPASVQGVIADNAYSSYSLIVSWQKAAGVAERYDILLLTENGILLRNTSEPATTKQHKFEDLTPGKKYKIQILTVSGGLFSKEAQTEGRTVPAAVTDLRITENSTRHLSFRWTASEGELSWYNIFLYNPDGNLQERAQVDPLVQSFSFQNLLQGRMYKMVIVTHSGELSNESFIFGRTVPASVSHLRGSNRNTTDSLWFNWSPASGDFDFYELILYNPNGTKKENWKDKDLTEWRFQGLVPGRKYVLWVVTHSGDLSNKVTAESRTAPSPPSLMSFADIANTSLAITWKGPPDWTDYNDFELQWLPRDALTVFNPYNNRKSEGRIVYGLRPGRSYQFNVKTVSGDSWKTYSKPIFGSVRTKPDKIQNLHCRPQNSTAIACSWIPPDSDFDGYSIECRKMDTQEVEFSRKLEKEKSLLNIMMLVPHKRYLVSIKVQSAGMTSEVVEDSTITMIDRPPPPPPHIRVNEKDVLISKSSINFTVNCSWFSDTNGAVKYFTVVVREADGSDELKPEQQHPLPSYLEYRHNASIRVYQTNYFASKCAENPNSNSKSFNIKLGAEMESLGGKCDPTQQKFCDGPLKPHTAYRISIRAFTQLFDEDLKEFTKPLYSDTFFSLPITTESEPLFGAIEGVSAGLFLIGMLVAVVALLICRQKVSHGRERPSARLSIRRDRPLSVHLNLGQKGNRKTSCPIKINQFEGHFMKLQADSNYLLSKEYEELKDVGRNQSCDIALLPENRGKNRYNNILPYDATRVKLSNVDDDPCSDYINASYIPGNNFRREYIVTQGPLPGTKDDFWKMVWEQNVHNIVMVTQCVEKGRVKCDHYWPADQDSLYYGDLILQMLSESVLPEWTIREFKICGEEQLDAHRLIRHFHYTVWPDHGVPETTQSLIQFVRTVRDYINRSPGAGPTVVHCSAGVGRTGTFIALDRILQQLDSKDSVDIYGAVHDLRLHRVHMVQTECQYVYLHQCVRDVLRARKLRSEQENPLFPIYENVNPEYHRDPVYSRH

IC50 (HPTPβ): < 0.002 nM
Molecule: COC(=O)N[C@@H](Cc1ccccc1)C(=O)N[C@@H](Cc1ccc(NS(=O)(=O)O)cc1)c1nc(-c2ccccc2)cs1 [AA21]

IC50 (HPTPβ): 40 nM
Molecule: CCCc1nc([C@H](Cc2ccc(NS(=O)(=O)O)cc2)NC(=O)OC(C)(C)C)cs1 [AA65]

Molecule: CC(C)(C)n1nc(-c2ccc(Cl)cc2)c2c(N)ncnc21 [PP2, reference compound]
basal and Yoda1-induced tyrosine phosphorylation of eNOS (eNOS; PP2 1 μmol/L pre-incubation): significantly reduced

Molecule: Clc1cccc(Cl)c1CSc1nnc(-c2cnccn2)s1 [Yoda1, reference compound]
phosphorylation of Akt and eNOS (eNOS; Yoda1 1 μmol/L, 30 min): elicited the phosphorylation of Akt on Ser473, and phosphorylation of eNOS on Ser1177 and Ser633

B1: ANG-1: angiopoietin 1, an agonist of Tie-2 (protein, UniProt Q15389 16-498, looked up)
Angiopoietin-1: HIGCSNQRRSPENSGRRYNRIQHGQCAYTFILPEHDGNCRESTTDQYNTNALQRDAPHVEPDFSSQKLQHLEHVMENYTQWLQKLENYIVENMKSEMAQIQQNAVQNHTATMLEIGTSLLSQTAEQTRKLTDVETQVLNQTSRLEIQLLENSLSTYKLEKQLLQQTNEILKIHEKNSLLEHKILEMEGKHKEELDTLKEEKENLQGLVTRQTYIIQELEKQLNRATTNNSVLQKQQLELMDTVHNLVNLCTKEGVLLKGGKREEEKPFRDCADVYQAGFNKSGIYTIYINNMPEPKKVFCNMDVNGGGWTVIQHREDGSLDFQRGWKEYKMGFGNPSGEYWLGNEFIFAITSQRQYMLRIELMDWEGNRAYSQYDRFHIGNEKQNYRLYLKGHTGTAGKQSSLILHGADFSTKDADNDNCMCKCALMLTGGWWFDACGPSNLNGMFYTAGQNHGKLNGIKWHYFKGPSYSLRSTTMMIRPLDF
Tie-2 phosphorylation (p-Tyr) (Tie-2): did not increase Tie-2 phosphorylation

B2: ranibizumab (antibody, chains of the INN, looked up, V domains shown)
VH: EVQLVESGGGLVQPGGSLRLSCAASGYDFTHYGMNWVRQAPGKGLEWVGWINTYTGEPTYAADFKRRFTFSLDTSKSTAYLQMNSLRAEDTAVYYCAKYPYYYGTSHWYFDVWGQGTLVTVSS
VL: DIQLTQSPSSLSASVGDRVTITCSASQDISNYLNWYQQKPGKAPKVLIYFTSSLHSGVPSRFSGSGSGTDFTLTISSLQPEDFATYYCQQYSTVPWTFGQGTKVEIK
modifications: Fab
blood pressure change (subjects with DME; baseline sitting SBP 140 mmHg or greater, ranibizumab alone (Group 3)): Minimal change in blood pressure | decrease in sitting systolic blood pressure compared to baseline (subjects with DME; ranibizumab 0.3 mg intravitreal alone (Group 3), 30 and 90 minutes post-dose): not seen

B3: Placebo + Ranibizumab (antibody, chains of the INN, looked up, V domains shown)
VH: B2 VH
VL: B2 VL
modifications: Fab with placebo
Sitting systolic blood pressure, Change from pre-dose to 30 minutes post-dose, Max (subjects with DME; [1]): 31 mmHg | Sitting systolic blood pressure, Change from pre-dose to 30 minutes post-dose, Mean (SD) (subjects with DME; [1]): 2.2 (14.32) mmHg | Sitting systolic blood pressure, Change from pre-dose to 30 minutes post-dose, Median (subjects with DME; [1]): 1.0 mmHg | Sitting systolic blood pressure, Change from pre-dose to 30 minutes post-dose, Min (subjects with DME; [1]): −37 mmHg | Sitting systolic blood pressure, Change from pre-dose to 90 minutes post-dose, Max (subjects with DME; [2]): 35 mmHg | Sitting systolic blood pressure, Change from pre-dose to 90 minutes post-dose, Mean (SD) (subjects with DME; [2]): −0.1 (14.46) mmHg | Sitting systolic blood pressure, Change from pre-dose to 90 minutes post-dose, Median (subjects with DME; [2]): 2.0 mmHg | Sitting systolic blood pressure, Change from pre-dose to 90 minutes post-dose, Min (subjects with DME; [2]): −30 mmHg
